Measured values reported in the DeepSol protein solubility set.

Experiment: soluble on expression in E. coli; label from the status in PepcDB or PDB records

Soluble on expression in E. coli, not soluble:
MGSDKIHHHHHHMTTPANAVDTALITRRSIRAFLPTPVPRADIEAILEAASRAPSGTNTQPWKVYVVTGESLARLSRALLAAYDDPQRDALYQEEYPYYPHQWVSPYIDRRRKIGWDLYGLLGITKGDKARMHEQHAQNYRFFGAPVGLFFTIDRVMERGSWLDYGMFLQAIMTAARGRGLDTCPQAAFTQFHRVIAEHLGLPPEEQLVCGMSLGFADEDALVNTLRTEREPVERFTRFLD
MGSDKIHHHHHHMTTTEQELTLTPLRGKSGKAYKGTYPNGECVFIKLNTTPILPALAKEQIAPQLLWAKRMGNGDMMSAQEWLNGRTLTKEDMNSKQIIHILLRLHKSKKLVNQLLQLNYKIENPYDLLVDFEQNAPLQIQQNSYLQAIVKELKRSLPEFKSEVATIVHGDIKHSNWVITTSGMIFLVDWDSVRLTDRMYDVAYLLSHYIPRSRWSEWLSYYGYKNNDKVMQKIIWYGQFSHLTQILKCFDKRDMEHVNQEIYALRKFREIFRKK
MGSDKIHHHHHHMVDVEEKSQEVEYVDPTVNRVPNYEVSEKAFLLTQSKVSIEQRKEAAEFVLAKIKEEEMAPYYKYLCEEYLVNNGQSDLEHDEKSDSLNEWIKFDQELYNELCKKNESKIKELNEKIQKLEEDDEGELEQAQAWINLGEYYAQIGDKDNAEKTLGKSLSKAISTGAKIDVMLTIARLGFFYNDQLYVKEKLEAVNSMIEKGGDWERRNRYKTYYGIHCLAVRNFKEAAKLLVDSLATFTSIELTSYESIATYASVTGLFTLERTDLKSKVIDSPELLSLISTTAALQSISSLTISLYASDYASYFPYLLETYANVLIPCKYLNRHADFFVREMRRKVYAQLLESYKTLSLKSMASAFGVSVAFLDNDLGKFIPNKQLNCVIDRVNGIVETNRPDNKNAQYHLLVKQGDGLLTKLQKYGAAVRLTGSDRV
MGSDKIHHHHHHMVETYTLNPNLTKTAAVAEWLQQRIDWHIYLPNQRVPSVRKLAKLLNISSFTVVQAYEQLVATGVLIAKPSSGYYVNTQSKLVQPNDDKRKVFKHPVIDTRWLVQQVFSDIPHNRSPGVGTLPRDWVRNDKMEWAIRQVTQQADSFIYDYGNVQGYLPLRQQLVQHLHTLGMQTHADHVITTAGVSQAVTMVARLLTQAGDTVVVDGPGWYWLSSCLQQQGLNVVSVERDHQGPNIEQMQKLFAAHRPKLYLTNSVLHNPTSYNLHPARAHQVLNLIHEYDAYIFEDDLYAAFVPGGQVLRYASLDQFERVFYATGFSKSMASGWRVGMLVCPDNYIDDVLRIKTLSNSNTPEFGERVCHHLWTHGEYRRQIKKVQQHLYRAHERMRKALPKIRLIYPEHTQAGLFVWVDMGQDTSQLALDAYKEGWLVAPGQLFYPDVSASTHLRLNVSTTSDEFLRWLGDYLDKSCQY
MGSDKIHHHHHHMVFFMLIIDVNHGALTLAEEYLNLGYEVDVWDIYQKIKKSEDFKVKYQKLKEKFGNKLNLFFEQPNFEKYDRVIAPIHCPIDVDFIPFTDAVSKILKEKFGNIHKKIINVTGVKGKTTTTSLINHILKDKYSTYLHNSNFGSIAPPTILKVLNSLDIDKYDFFIFETSLGLIKCKYGAITNVLENYKIAGGRKDALTAKFSSLKNAELSFINKRDINRYDLNINHKCLNVVDVDRAKILDKYPLKFKYFDEIFEFSKNIFGLHFVENSLFAIEICKNLVDMEEIRYRLKTFTIKNRMEIKEINKKILVKNINPGLDVKAISYAIKDFLEVFGGDIYIGGDFGIVCEEIDVKKLSEVLKRFNCRYIFVGEIGKELLNYLNGGYIKSYDENKIKRDSLVILREKIK
MGSDKIHHHHHHMVIDSIRSSSTGPRDAPGKRLAVGISLFARDGQAIWENGIHQNIAFLAMMLKQSDRIGPVYFLNGGDAKALPAGLDLGGLDVPLVQPRDVSHALDVVIEMGAQLPVDWLKHMKALGKKLVVCFVGHTYSGLTETPMFNRPSGHIFNGGPFDEVWILPKSEKIDAPLLRTLTRAPVHVVPHIWSPYFIERRARELEAAGLRFGYAPGRAKWRLSILEPNISVVKTCHYPMLAADEFHRAQPDAVEHLFVVNSLHMKEHPTFVHFANSLDLVREHKATFEPRIDLPSFLAQHGDAVISHQWENPQNYLYYDVLYGGYPLVHNSPMLGDAGYYYPEFDSAAGGRALQHAWRHHDAHLDDYRRHADALLQAVSIDNRRNLDAYVARLFA
MGSDKIHHHHHHMVKFIHCSDLHLDSPFKSKSHISPKIFEDVQKSAYESFKNIVDIALQQDVDFVIIAGDLFDSENRTLRAEIFLKQQFERLQNEQIFVYVCHGNHDPLSSKISSNWPDNVSVFSNKVETYEAITKSGETIYIHGFSYENRASYENKIDEYPSSQGQKGIHIGVLHGTYSKSSVNERYTEFILEDLNSKLYHYWALGHIHERQQLSDMPVINYSGNIQGRHFNEQGEKGCLLIEGDHLKLKTKFYPTQYIRFEEATIETDKTSKQGLYEVIQNFKEQVREEGKAFYRLTLVINSETLISPQDLLQVEEMITDYEENENQFVYIDELKIQYAQNDESPLVNEFSAELLVDQTVFDKAMSDLYLNPRASKFLDDYGTFDHTALVNRAEEILKAEMRGEQNDN
MGSDKIHHHHHHMVKMNMSDIDISEPLSDLLAPLNNEQREFLMNNYTIQTYKKNETIYCEGETPSHLMCLITGKVKIFKDGVGGRSQIIRMIKQREYFAYRAYFAKEDFVTAAAAFEPSVICLIPMTAITTLVAQNNDLAMFFIRQLSIDLGISDERTVSLTQKHIRGRLAESLIFLKESYGLEEDGSTLSIYLSREDLANLSNMTTSNAIRTLSQFATERLITIDGRKIKIIEEEKLKKISKIG
MGSDKIHHHHHHMVMDHDIYFGYQRPRPTEYVQFANFDSRQLNLYLAGRIANNPPTKEVTESIGYMDGIIDFSDILGRRIFDNRTIEYQFKALNINYHDRKLLEQKCKRLLLIPMRQPIYDSHDLPFYWFGKASSVTANDDHVNNVLEITVQFNVSPYALRKGQFDDIWDNFSLETGYAQFTKYSVKGTKKISLYNDSDLKSRLKVICQNDMTINGKYKYTKNYQDNPNFRLEPGINDLTVNGNGDIEFQWESEVML
MGSDKIHHHHHHMVNGNITQLSDMQIPENWGAYLAEKSTQNNAFFTSGVVQNVPQIAALLGAGKVANMPLFKPLADDDPQVPDDTTDLLVNKITTDLAQARKLGFDQAWSATDLSAELSGADPLSAIGDQVSDYWSHVYEKLLLQTLTGVFSSTSMKGVNQLDTTTDKTDTTFSLKNFNKARFLLGDRYKDLAIVAVHSDILRQLQDANLVDAKNNSTFVLNGNSNVPTAIQTPDAGDKIKGVQIVVDDSLPVDNGKYTSYLFAQGAVGYSELPVTNAVETNRDPLKNHGIDYLVNRRRFVFAPQGLSWNESNFVTKNPGKTYPSMTDLADGTNWSKVYDHKLIPMAQFVTSADAIVPSTTADPQTGK
MGSDKIHHHHHHMVNHTQFRQWGRKVIDIEKAALDNLYQYVDSVEFDQACQLIMQCKGKVIVMGMGKSGHIGNKISATFASTGTPAFFVHPGEASHGDLGALAKNDIVLAISNSGESSEILTLMPVIQRMGVPVIAVTGKPDSNMARLSKIHLCIQVQEEACPLGLAPTSSTTATLAMGDALAIALLQAKGFTRDDFALSHPGGSLGRKLLLKVDDVMHQGDDLPIVNDDICITDALYEISKKGLGMTAVVDHASKLVGIFTDGDLRRVIDADVNLRTTSIAHVMTKNCVTSPAGILAAQALQIMDEKSINGLIVVNEKHQPIGALNMLDMVKAGVI
MGSDKIHHHHHHMVNNQLELEVKSFLEGQSDFANLPSSEITRLSQVIRKKKIRQGQWIFDQEDEFEYVFLMKEGHVKLFSMNLEGDMTSVSYIVPQMVFPLRGILQGRKYCYNAVAMCTSEVYILPIKEMRKIIVHHYAFTMAFMRRMEHRLHRSEKLLEKTTCSSAAQRVRQVLDYLNEDYAQTHGTVKKVPFKIFLKDLAVLSATTSETAGSVIKAMKEEKKVLYNNKIISFI
MGSDKIHHHHHHMVQAIDNTIATNFLTDAVVERHNFSQLNKTRIRFRIQLKKSTKSAAPKWADVLQAEVSEIESDLVKVTNSEVGLRGIKVFKKLDEAAAQLRQEIASVQEWMSADTGDWVCPIDLAPLVWNQLINIRDNIAPGLRNQLKADYEAGLVDYQERIDQFLSLNTWELAQDKQESVKANLLRAFPTLTDLEDYLQVVIGRPVIIPALSEQLNQQQAECLDQITKFIQQYDQNLEQRLRESALAGGEQLAAQLLEELADWEPGRKPVQFKKKMERHLMKVQVLLANADSEAGSSLEAMMTHLDSIVNDPAIESKNLGSDTRSQLQQKMQEIRIKLLDEQRNLQSLATEDVGLSKATVMSFKFR
MGSDKIHHHHHHMVRPQRNKKRFILILNGVWNLEVTSKDRPIAVPGSWNEQYQDLCYEEGPFTYKTTFYVPKELSQKHIRLYFAAVNTDCEVFLNGEKVGENHIEYLPFEVDVTGKVKSGENELRVVVENRLKVGGFPSKVPDSGTHTVGFFGSFPPANFDFFPYGGIIRPVLIEFTDHARILDIWVDTSESEPEKKLGKVKVKIEVSEEAVGQEMTIKLGEEEKKIRTSNRFVEGEFILENARFWSLEDPYLYPLKVELEKDEYTLDIGIRTISWDEKRLYLNGKPVFLKGFGKHEEFPVLGQGTFYPLMIKDFNLLKWINANSFRTSHYPYSEEWLDLADRLGILVIDEAPHVGITRYHYNPETQKIAEDNIRRMIDRHKNHPSVIMWSVANEPESNHPDAEGFFKALYETANEMDRTRPVVMVSMMDAPDERTRDVALKYFDIVCVNRYYGWYIYQGRIEEGLQALEKDIEELYARHRKPIFVTEFGADAIAGIHYDPPQMFSEEYQAELVEKTIRLLLKKDYIIGTHVWAFADFKTPQNVRRPILNHKGVFTRDRQPKLVAHVLRRLWSEV
MGSDKIHHHHHHMVTEIELKYSLLDSNEQTKPEKIKTTISQLLSEHDVTFVHQEKQLSNHYFDTADLTLRKNRIALRTRGTKCFDETKRFEQTIKTSGTIIAGLHQRPEYNVDIGDAKPIVSLFPDIIFQPNIDINLLQQQIVELFSTHFTRHTWLVSFEDAQIEIAFDCGEVACQNYVKKPRIYEIELEFVSGDSQALLGLTKLLFSQLALRPGQLTKAARGYALYHESLTLASHVENKPPNNSAIVEQIELSMINLPKKIPLHNALTHGIEFSLNQLQLCVDSYVEVPSFNMLSKVSEQLILLRQGFWLFDELLSPDEKALRTELSYFIRTIHWVENARYIQLLINKQSSYQKENLINQELITKLQLRQSRYPRELQVLELLHSERFNNLQVDLLSLLLKRNSDETLKIDNSSSLVEFATKHLTNSTKALSDELVKLQKPQDSTSIELYLTAHSLLIRALLTTSWFSCLFAEPESDIVKRFNMPLLDIKQGIIELQSLSLLLQQLKHLPKKENKLTQWLTNKSENLITALDQSRAKALTMKPYWP
MGSDKIHHHHHHMWIGFDYGSANCAVGIMHEGKISQIPLSANSQYLPSTLYALDRELIAQAVYQGISQDKKSEYAKLRSSQLSRAIQVRHELDLSMDEQTVFVGQAAIDAYLEMPEEGFYVRSPKSFLGANGLREEQVALFEDIVTLMMLHVKGITDNYLADNGLPAATHAVIGRPVNFQSIGGEKSNQQAEAILSLAAKRAGFTQVAFLFEPVAAGMDFEASLEQDSTVLVVDVGGGTTDCSVVRMGPSFAANKQREQDCLGHSGQRVGGNDLDIALAMKGFMPSLGLDSLLKSGKPMPSAPFWQAVAVNDVSAQRDFASLNARKLLDTLVKDAKEPELVKRLKKVQQDQLGYKLVRQAEGAKVTLSDAMQTECDLGFIASDLSVELTQAQFSHFIIEPLAKIEALIQAAVAKADVNPDLVYVTGGTARSPAIYAKIASVYPEAKIVVGDHFGSVTAGLTRWTQKVF
